The numbers were not newly measured in paper PMC6803667, “Binding site plasticity in viral PPxY Late domain recognition by the third WW domain of human NEDD4” (Scientific Reports, 2019), which cites them from elsewhere.

This series has as its target ARRDC3 peptide (Homo sapiens).

pKd: −log10 of the molar value.

Sequence of NEDD4 WW3 (P46934 837-876): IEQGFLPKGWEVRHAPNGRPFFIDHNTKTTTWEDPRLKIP

With NEDD4 WW3 (from UniProt P46934), the pKd (commonly the Kd on a negative log10 scale, so that one unit is a factor of ten) was 5.52.
